Measured values from patent US20230349919A1.

B1: Candidate ID 9 (antibody, V domains shown)
VH: EVQLQQSGPELVKPGASVKISCKASGYTFTDYYMNWVKQSHGKSLEWIGDINPNNGGTSYNQKFKGKATLTVDKSSSTAYMELRSLTSEDSAVYYCAYGPPRGPPWFAYWGQGTLVTVSA
VL: DIVLTQSPASLAVSLGQRATISCRASKSVSTSGYSYMHWYQQKPGQPPKLLIYLASNLESGVPARFSGSGSGTDFTLNIHPVEEEDAATYYCQHSRELPWTFGGGTKLEIK
B2: IgE mAb 13_2 (antibody, V domains shown)
VH: B1 VH
VL: B1 VL

Tests used:
[1] = biological target: Der f 1 (house dust mite) (UniProt P16311); assay: barcoded antigen sequencing of single IgE PCs with trapped IgE
Sequence of Der f 1 (house dust mite) (P16311 99-321 limits assumed): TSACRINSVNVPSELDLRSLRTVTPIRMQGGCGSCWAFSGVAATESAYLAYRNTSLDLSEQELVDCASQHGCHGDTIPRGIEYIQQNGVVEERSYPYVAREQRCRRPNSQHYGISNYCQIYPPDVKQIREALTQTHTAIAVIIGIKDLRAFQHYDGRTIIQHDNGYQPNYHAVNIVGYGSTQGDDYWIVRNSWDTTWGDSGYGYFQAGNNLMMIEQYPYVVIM

[2] = biological target: Der p 1 (house dust mite) (UniProt P08176); assay: as above
Sequence of Der p 1 (house dust mite) (P08176 99-320 limits assumed): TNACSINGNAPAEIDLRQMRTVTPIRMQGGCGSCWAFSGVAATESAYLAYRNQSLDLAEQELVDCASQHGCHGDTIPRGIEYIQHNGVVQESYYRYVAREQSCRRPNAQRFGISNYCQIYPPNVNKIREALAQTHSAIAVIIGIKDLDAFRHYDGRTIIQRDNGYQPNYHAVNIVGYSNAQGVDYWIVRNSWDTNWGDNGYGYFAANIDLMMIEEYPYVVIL

[3] = biological target: Der p 2 (house dust mite) (UniProt P49278); assay: as above
Sequence of Der p 2 (house dust mite) (P49278 18-146 limits assumed): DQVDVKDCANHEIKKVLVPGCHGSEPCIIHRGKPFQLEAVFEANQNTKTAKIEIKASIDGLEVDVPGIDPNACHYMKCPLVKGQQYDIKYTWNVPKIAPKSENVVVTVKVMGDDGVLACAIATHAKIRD

[4] = biological target: Ole e 1 (olive) (UniProt P19963); assay: as above
Sequence of Ole e 1 (olive) (P19963 whole entry): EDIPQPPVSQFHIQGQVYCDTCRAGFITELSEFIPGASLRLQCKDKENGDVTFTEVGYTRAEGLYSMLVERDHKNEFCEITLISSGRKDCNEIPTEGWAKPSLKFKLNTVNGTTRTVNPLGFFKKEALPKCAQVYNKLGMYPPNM

[5] = biological target: Der f 1 (house dust mite) (UniProt P16311); assay: barcoded antigen sequencing of single IgE PCs with trapped IgE [cont.]
[6] = biological target: Der p 1 (house dust mite) (UniProt P08176); assay: as above
[7] = biological target: Der p 2 (house dust mite) (UniProt P49278); assay: as above
[8] = biological target: Ole e 1 (olive) (UniProt P19963); assay: as above
[9] = biological target: Der f 1 (house dust mite) (UniProt P16311); assay: antigen specificity score against Ole e 1 from barcode counts of single IgE PCs [cont.]
[10] = biological target: Der p 1 (house dust mite) (UniProt P08176); assay: as above
[11] = biological target: Der p 2 (house dust mite) (UniProt P49278); assay: as above
[12] = biological target: Der f 1 (house dust mite) (UniProt P16311); assay: centered log-ratio of barcode count
[13] = biological target: Der p 1 (house dust mite) (UniProt P08176); assay: centered log-ratio of barcode count
[14] = biological target: Der f 1 (house dust mite) (UniProt P16311); assay: barcoded-antigen count on source cell
[15] = biological target: Der p 1 (house dust mite) (UniProt P08176); assay: barcoded-antigen count on source cell
[16] = biological target: Der f 1 (house dust mite) (UniProt P16311); assay: barcode rank score against control Ole e 1
[17] = biological target: Der p 1 (house dust mite) (UniProt P08176); assay: barcode rank score against control Ole e 1

Row | Binder | Raw Antigen Barcode Count [1] | Raw Antigen Barcode Count [2] | Raw Antigen Barcode Count [3] | Raw Antigen Barcode Count [4] | Normalized Barcode Count [5] | Normalized Barcode Count [6] | Normalized Barcode Count [7] | Normalized Barcode Count [8] | Antigen Score [9] | Antigen Score [10] | Antigen Score [11] | Derf1 ab clr [12] | Derp1 ab clr [13] | Derf1 ab raw [14] [counts] | Derp1 ab raw [15] [counts] | Derf1 ab rank [16] | Derp1 ab rank [17]
1 | B1 | 15 | 16 | 46 | 1 | 0.82 | 0.981 | 1.62 | 0.029 | 0.765 | 0.775 | 0.858 |  |  |  |  |  | 
2 | B2 |  |  |  |  |  |  |  |  |  |  |  | 0.82 | 0.981 | 15 | 16 | 0.765 | 0.775
